Data reported in PMC7239026, “PepO is a target of the two-component systems VicRK and CovR required for systemic virulence of Streptococcus mutans” (Virulence, 2020).

Key:
[1] = molecular target: T1, human C4b-binding protein (C4BP) (human, UniProt P04003 49-597; P20851 18-252); test: ELISA; human glycoproteins coated on 96-well plates (5 ug/mL in 75 mM sodium carbonate buffer pH 9.6, 18 h at 4°C); blocked with 3% fish gelatin; rPepO (10 to 50 ug/mL) or rCnmA (0.125 to 2 ug/mL) in 50 mM HEPES pH 7.4, 150 mM NaCl, 2 mM CaCl2, 50 ug/mL BSA, 2 h at 37°C; bound protein detected with rabbit antiserum and peroxidase conjugate, A450 nm; wells with 1% BSA as control; details: both partners purified
T1 construct: Named only as a whole ('a multimeric glycoprotein'); source: bought: Athens Research & Technology
T1 sequence (looked up) 1: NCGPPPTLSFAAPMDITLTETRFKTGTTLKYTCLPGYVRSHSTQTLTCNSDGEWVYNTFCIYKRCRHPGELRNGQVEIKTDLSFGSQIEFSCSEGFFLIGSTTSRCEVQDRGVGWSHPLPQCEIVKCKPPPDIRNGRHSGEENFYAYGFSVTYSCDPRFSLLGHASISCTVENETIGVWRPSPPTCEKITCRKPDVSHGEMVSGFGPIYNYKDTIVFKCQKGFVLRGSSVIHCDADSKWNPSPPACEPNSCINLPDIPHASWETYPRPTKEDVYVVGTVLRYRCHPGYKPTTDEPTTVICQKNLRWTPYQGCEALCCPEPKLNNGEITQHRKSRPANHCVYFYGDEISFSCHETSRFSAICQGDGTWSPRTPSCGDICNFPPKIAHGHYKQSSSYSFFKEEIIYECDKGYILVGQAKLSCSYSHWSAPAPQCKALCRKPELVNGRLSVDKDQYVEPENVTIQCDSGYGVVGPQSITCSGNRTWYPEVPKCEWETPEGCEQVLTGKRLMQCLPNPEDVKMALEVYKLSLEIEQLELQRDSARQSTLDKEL
T1 sequence (looked up) 2: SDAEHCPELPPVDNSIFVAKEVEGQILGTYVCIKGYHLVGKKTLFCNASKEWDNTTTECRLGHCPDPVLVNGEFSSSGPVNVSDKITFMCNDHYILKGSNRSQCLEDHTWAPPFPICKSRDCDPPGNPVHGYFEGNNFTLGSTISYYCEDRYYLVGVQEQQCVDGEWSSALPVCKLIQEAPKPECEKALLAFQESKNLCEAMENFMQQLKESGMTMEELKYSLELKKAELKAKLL

[2] = molecular target: T2, human complement protein C1q (human, UniProt P02745 23-245; P02746 28-253; P02747 29-245); test: as above; details: both partners purified
T2 construct: Complement C1q subcomponent subunit A, human; Complement C1q subcomponent subunit B, human; Complement C1q subcomponent subunit C, human; Named only as a whole; source: bought: Calbiochem
T2 sequence (P02745 23-245, chain 1 of 3): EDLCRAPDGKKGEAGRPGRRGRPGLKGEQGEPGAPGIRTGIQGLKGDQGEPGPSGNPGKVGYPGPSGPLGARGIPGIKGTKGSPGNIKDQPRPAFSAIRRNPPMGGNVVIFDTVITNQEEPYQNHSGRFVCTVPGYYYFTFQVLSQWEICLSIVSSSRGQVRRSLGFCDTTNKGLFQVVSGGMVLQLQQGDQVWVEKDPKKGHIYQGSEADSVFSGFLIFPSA
T2 sequence (P02746 28-253, chain 2 of 3): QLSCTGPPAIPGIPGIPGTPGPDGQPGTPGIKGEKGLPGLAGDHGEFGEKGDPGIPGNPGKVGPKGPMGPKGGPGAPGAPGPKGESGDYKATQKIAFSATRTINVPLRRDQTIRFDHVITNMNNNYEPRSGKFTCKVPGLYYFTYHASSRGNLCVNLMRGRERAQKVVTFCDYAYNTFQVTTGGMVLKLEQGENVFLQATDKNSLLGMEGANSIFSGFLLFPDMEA
T2 sequence (P02747 29-245, chain 3 of 3): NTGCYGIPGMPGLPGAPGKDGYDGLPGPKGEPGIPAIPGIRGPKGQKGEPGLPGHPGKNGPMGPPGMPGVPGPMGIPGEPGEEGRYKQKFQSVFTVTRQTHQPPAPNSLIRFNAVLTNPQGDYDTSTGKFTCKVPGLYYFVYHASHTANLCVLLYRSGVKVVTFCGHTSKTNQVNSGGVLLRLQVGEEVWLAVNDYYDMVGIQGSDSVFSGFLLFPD

B1: His-tagged PepO recombinant protein (rPepO), endopeptidase O of Streptococcus mutans (natural protein)
chain: MVRLQDDFYNAVNGQWEEAAVIPDDKPRTGGFSDLADDIEDLMLETTDKWLDGKDVPDDSILQNFVKFHRQVADYDAREETGVKPVLPLIEEYKSLTSFADFASNIATYEMAGKPNELPFGVAPDFMNAQMNVLWAEAPNLILPDTTYYAEGNDKGKELLAKWRTMQEELLPKFGFEEAEIKDLLDKVLTLDAKLAQYVLSSEESSEYVKLYHPYDWADFTKLTPELPLDAIFTQILGQKPDKVIVPEERFWTNFAAEFYSEKNWPFLKATLVLAAASSYNSYLTDDIRILSGSYNRALSGTPQAMGKKKAAFYLAQGPYNQALGLWYAGEKFSPEAKKDVEAKVATMIEVYKERLHKTDWLAQETRNKAITKLNVITPHIGYPEQLPKTYAQKIIDDNLSLVENAQNLAKISIAYNWSKWNQPVDRSEWHMPAHMVNAYYDPQQNQIVFPAAILQAPFYSLEQSSSANYGGIGAVIAHEISHAFDTNGASFDENGSLNNWWTDEDYAAFKKRTDRVVEQFEGLDSYGAKVNGQLTVSENVADLGGLACALEAAKREADFSVRDFFINFATIWRMKARDEYMQMLASIDVHAPAKWRTNVTITNFDEFHQEFAVKEGDGMWRDEDKRVIIW
notes: PepO (endopeptidase O) of Streptococcus mutans strain UA159; entire PepO coding region (1896 bp) amplified from UA159 genomic DNA and cloned into pET-16B; Vector pET-16B; also called full-length PepO; source: E. coli BL21, purified under native conditions (Ni-NTA), dialyzed in PBS
B1: binds [1]; binds [2].
